The results in this text go back to patent US6602659.

This assay concerns the target human ST receptor protein (human) (UniProt P25092). Briefly: receptor binding on colorectal tumor samples (local and metastasized); method and ligand not described.

A value given as a limit tells only on which side of the number the result lay.

Chain of UniProt P25092 (P25092 other isoform, or with tags, fused parts or gaps limits assumed): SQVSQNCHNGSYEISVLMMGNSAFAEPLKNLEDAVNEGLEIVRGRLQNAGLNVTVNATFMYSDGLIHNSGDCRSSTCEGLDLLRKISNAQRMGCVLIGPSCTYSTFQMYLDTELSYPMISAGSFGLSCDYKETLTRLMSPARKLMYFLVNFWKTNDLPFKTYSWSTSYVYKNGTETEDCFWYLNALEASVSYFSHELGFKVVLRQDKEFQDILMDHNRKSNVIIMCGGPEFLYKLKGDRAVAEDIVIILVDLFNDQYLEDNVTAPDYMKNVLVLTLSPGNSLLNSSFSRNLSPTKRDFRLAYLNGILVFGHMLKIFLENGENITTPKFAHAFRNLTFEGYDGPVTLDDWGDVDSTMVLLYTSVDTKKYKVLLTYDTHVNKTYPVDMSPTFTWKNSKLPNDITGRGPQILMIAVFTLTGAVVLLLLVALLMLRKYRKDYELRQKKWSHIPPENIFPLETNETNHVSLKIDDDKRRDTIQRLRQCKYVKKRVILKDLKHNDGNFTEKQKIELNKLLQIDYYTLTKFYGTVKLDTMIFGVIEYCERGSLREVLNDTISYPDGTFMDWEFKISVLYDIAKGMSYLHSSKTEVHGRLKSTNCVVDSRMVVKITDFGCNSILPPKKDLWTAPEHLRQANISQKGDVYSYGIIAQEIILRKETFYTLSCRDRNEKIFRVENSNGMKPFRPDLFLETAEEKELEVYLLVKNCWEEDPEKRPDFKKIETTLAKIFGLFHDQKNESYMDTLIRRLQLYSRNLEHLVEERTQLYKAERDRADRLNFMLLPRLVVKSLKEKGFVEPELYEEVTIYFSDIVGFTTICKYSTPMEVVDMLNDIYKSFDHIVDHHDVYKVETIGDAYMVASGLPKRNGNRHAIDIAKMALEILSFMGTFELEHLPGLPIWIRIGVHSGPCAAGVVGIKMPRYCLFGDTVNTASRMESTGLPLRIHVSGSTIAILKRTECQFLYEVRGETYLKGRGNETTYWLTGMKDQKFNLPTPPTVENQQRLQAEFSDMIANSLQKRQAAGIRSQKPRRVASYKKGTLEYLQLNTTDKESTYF

For heat-stable toxin (ST) (peptide), the affinity was < 1e-07.
